What was measured:
Format in all cases: cell-based, human
Met [1] = assay: In1B-induced degradation of Met, anti-Met immunoblot of total HeLa cell extracts
Description: FIG. 2 depicts the degradation and de-novo synthesis of Met. (A) HeLa cells were treated at the indicated times with 5 nM In1B and cellular extracts were blotted against Met. (B) Cells were treated as in A, but blotted at the same time with anti-Met antibody and Streptavidin. Stars indicate nonspecific bands recognized by streptavidin and the square indicates Met. (C) The experiment was performed as in A, but cells were pre-treated with […] of cycloheximide for 90 minutes before addition of In1B. (D) This experiment was performed as in A, but In1B was removed three minutes after it was added. Actin is shown as the loading control in A, C and D. The molecular mass of the markers is indicated in kDa.
Cells, bacteria and growth conditions. The human cell line used was HeLa (ATCC number CCL-2) grown as recommended by ATCC. Typically, cells were serum starved for three hours before the addition of In1B. The bacterial strains used were Listeria monocytogenes BUG600 and BUG1461. They were grown in BHI medium, which in the case […] contained 5 μg/ml of erythromycin.
Assays. Immunoprecipitation, Re-immunoprecipitation, and immunoblots were performed as described before (31). In1B purification was performed as described (54).
To study In1B-induced degradation of Met in more detail, HeLa cells were treated during increasing periods with In1B (5 nM) and anti-Met immunoblots were performed directly on total cell extracts (FIG. 2A).
When In1B is present, de-novo synthesized Met was in turn ubiquitinated and then degraded (FIG. 2A).

Met [2] = assay: Cell surface biotinylation and internalization assay of Met; details: HeLa cells, In1B two minutes
Description: (A) Hela cells were treated (+) with […] epoximycin, […] clasto-lactacystin-β-lactone (lactone), 20 mM ammonium chloride, or 5 μM bafilomycin A1 (Baf-A1) for 90 minutes before addition of In1B. Cell extracts were loaded in a SDS-PAGE gel followed by immunoblot with anti-Met antibody. […] (B) Surface exposed proteins of Hela cells were biotinylated (Biot +) before addition of In1B. In1B was added for two minutes to allow internalization of Met, then cells were washed and biotin was removed (see methods and text) from the surface. Samples were precipitated with neutravidin agarose and blotted against Met.
Cell surface biotinylation and internalization assay were performed as described before (35). Briefly, the cells were washed in ice-cold PBS, and incubated with 25 mg/ml EZ-link Sulfo-NHS-SS-biotin (Pierce) 15 minutes in PBS pH 8.0, and followed by one wash with serum free media containing 0.1% BSA, followed by one wash in PBS containing Ca and Mg (PBS+CaMg; Gibco). The cells were then warmed to 37° C., incubated with In1B for two minutes, and then cooled down to 4° C. The cells were washed again with PBS+CaMg, and cell-surface debiotinylation was performed by adding 100 mM MESNA in 50 mM Tris-HCl pH 8.6, 100 mM NaCl, 1 mM EDTA and 0.2% BSA (3 times, 10 minutes incubation). […]

Met [3] = assay: Maintenance of InIB-induced degradation of Met in the presence of HGF; details: HeLa cells, HGF 1 nM + InIB 5 nM, 1% serum medium
Description: FIG. 9 depicts immunodetection of Met from total cell lysates. Serum-containing media (1%) with HGF (1 nM), HGF (1 nM)+InIB (5 nM), or without either HGF or InIB (control) was added to HeLa cells. Cells were recovered at the indicated times after addition of HGF, and HGF+InIB, resuspended in SDS-PAGE sample buffer, and immediately boiled for 5 minutes.
Shortly after InIB treatment, Met is very rapidly degraded. Thus, whether InIB-induced degradation of Met is maintained for longer periods of time was tested. In fact, InIB-induced degradation of Met is maintained in time.

Met [4] = assay: Nature of In1B-dependent ubiquitination of Met (FK1 versus P4D1 antibodies); details: HeLa cells, In1B 5 nM, FK1 did not recognize
Description: (A) In1B was added (+) to HeLa cells. Lysates were immunoprecipitated using C12 rabbit polyclonal anti-Met antibody and blotted against Met (DL21 mAb). The same membrane was stripped and blotted against ubiquitin using FK1, a mAb that recognizes poly-ubiquitinated proteins, or P4D1, a mAb that recognizes both poly- and mono-ubiquitinated proteins. (B) Total cell extracts from Hela cells treated with […] epoximycin (lane 2) or […] clasto-lactacystin-β-lactone (lane 3) for 60 minutes, or non-treated cells (lane 1) were blotted against poly-ubiquitin (FK1) or actin. (C) ubiquitin ladder was blotted with FK1 or P4D1. The number of ubiquitin modules is indicated on the right. The molecular weight of protein markers is shown in the left of the panels, in kDa. In D and E, Hela Cells were transfected with siRNA to knock down Cbl expression (RNAi), or with RNA control (Control). (D) Cellular Cbl and actin were detected by immunoblotting. […]
The rapid degradation of Met after In B contact is different from the HGF-dependent degradation, which has been reported to take two hours (19-21), indicating differences in the biochemistry of the process. […] Samples from HeLa cells treated with In1B (5 nM) were immunoprecipitated using an anti-Met antibody, and then Met-immunoprecipitates were analyzed with an anti Met mAb (FIG. 3A1), FK1 (FIG. 3A2) or P4D1 (FIG. 3A3). […]

Chain of Met (P08581 25-1390): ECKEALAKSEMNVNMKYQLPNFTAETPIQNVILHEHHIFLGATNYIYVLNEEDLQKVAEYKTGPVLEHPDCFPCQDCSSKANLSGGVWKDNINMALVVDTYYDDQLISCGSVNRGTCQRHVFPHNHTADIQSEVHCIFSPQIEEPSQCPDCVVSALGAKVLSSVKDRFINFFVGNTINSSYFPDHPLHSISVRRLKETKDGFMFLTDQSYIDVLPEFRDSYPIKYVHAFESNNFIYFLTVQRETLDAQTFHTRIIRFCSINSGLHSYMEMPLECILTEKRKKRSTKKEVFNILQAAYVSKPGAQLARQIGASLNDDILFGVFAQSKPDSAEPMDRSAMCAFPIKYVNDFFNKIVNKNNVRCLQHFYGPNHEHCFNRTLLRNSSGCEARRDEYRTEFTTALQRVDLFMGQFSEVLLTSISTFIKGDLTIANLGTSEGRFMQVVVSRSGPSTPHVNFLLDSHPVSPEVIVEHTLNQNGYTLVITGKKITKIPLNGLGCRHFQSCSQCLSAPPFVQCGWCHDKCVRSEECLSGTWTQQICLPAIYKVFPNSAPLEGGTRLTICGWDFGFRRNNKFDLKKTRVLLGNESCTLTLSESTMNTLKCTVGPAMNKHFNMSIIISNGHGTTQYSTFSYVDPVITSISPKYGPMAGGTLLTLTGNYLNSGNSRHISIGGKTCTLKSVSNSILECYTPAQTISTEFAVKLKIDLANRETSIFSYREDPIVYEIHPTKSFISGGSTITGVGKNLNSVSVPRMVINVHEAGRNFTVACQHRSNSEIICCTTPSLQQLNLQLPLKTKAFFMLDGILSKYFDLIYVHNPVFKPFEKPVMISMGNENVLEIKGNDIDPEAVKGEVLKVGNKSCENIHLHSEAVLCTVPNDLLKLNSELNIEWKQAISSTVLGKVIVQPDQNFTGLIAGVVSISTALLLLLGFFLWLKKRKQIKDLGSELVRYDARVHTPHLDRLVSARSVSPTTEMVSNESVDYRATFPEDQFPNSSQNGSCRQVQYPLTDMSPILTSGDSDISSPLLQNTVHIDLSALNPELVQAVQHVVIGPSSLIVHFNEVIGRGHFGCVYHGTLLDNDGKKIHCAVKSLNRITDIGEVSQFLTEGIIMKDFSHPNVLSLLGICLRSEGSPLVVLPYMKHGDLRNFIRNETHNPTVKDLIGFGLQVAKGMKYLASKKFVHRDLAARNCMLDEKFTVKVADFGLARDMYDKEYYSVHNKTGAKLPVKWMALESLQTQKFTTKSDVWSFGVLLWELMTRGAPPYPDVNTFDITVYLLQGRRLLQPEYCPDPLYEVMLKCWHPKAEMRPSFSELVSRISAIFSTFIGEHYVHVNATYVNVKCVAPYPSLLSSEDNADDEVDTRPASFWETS

B1: In1B: Listeria monocytogenes surface protein of the internalin family that interacts with Met; purified soluble protein (protein, UniProt P0DQD2 31-630, looked up)
Internalin B: AKVQAETITVPTPIKQIFSDDAFAETIKDNLKKKSVTDAVTQNELNSIDQIIANNSDIKSVQGIQYLPNVTKLFLNGNKLTDIKPLANLKNLGWLFLDENKVKDLSSLKDLKKLKSLSLEHNGISDINGLVHLPQLESLYLGNNKITDITVLSRLTKLDTLSLEDNQISDIVPLAGLTKLQNLYLSKNHISDLRALAGLKNLDVLELFSQECLNKPINHQSNLVVPNTVKNTDGSLVTPEIISDDGDYEKPNVKWHLPEFTNEVSFIFYQPVTIGKAKARFHGRVTQPLKEVYTVSYDVDGTVIKTKVEAGTRITAPKPPTKQGYVFKGWYTEKNGGHEWNFNTDYMSGNDFTLYAVFKAETTEKAVNLTRYVKYIRGNAGIYKLPREDNSLKQGTLASHRCKALTVDREARNGGKLWYRLKNIGWTKAENLSLDRYDKMEYDKGVTAYARVRNASGNSVWTKPYNTAGAKHVNKLSVYQGKNMRILREAKTPITTWYQFSIGGKVIGWVDTRALNTFYKQSMEKPTRLTRYVSANKAGESYYKVPVADNPVKRGTLAKYKNQKLIVDCQATIEGQLWYRIRTSSTFIGWTKAANLRAQK
- time after addition at which In1B-induced degradation of Met is observable (Met [1]): one
- total amount of Met two minutes after addition of In1B (Met [1]; HeLa cells, In1B 5 nM, 2 minutes): strongly reduced
- specificity of the In1B effect for Met versus other cellular proteins (Met [1]; HeLa cells, In1B 5 nM, blot with anti-Met antibody and Streptavidin, actin control): only affected the amount of Met
- degradation of re-synthesized Met when In1B was removed from the medium (Met [1]; HeLa cells, In1B removed three minutes after addition, 15 minutes after initial exposure): no degradation of Met was observed
- endocytosis of Met (protection of biotinylated Met from MESNA de-biotinylation) (Met [2]): protected Met from de-biotinylation
- time for which InIB-induced degradation of Met is maintained (Met [3]): at least 24 hours
- nature of In1B-dependent ubiquitination of Met (Met [4]): mono-ubiquitination rather than poly-ubiquitination

— patent US20060217308A1, “Compositions for the treatment of tumor pathologies, comprising internalin B (ln1B) of Listeria monocytogene protein or a fragment thereof” (priority 2005, published 2006)
